Target: Myeloperoxidase (Homo sapiens, UniProt P05164)
Test: SPR

Chain of Myeloperoxidase (P05164 165-273): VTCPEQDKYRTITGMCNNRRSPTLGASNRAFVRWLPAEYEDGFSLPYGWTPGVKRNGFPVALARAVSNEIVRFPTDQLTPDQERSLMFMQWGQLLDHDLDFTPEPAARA

VPNHFNAP [VPNHFNAP peptide]
Kd: 183 µM
